Article PMC2581579

Molecular target: mutant ferritin light chain p.Phe167SerfsX26 (MT-FTL) homopolymer (human) (UniProt P02792)
Assay: SEC

mutant ferritin light chain p.Phe167SerfsX26 (MT-FTL) homopolymer (from UniProt P02792 1-166) (natural protein)
stoichiometry N: 24
